Several values for one entry are separate records, joined by “and”; a condition that tells them apart may be missing. Equal entries are not always repeated. Entries after “also recorded” stand apart in the source; their conditions may differ.
B1: H2aM9232N: antagonistic anti-APLNR antibody, HCVR/LCVR SEQ ID NO: 98/106, mouse IgG2a Fc (antibody, V domains shown)
VH: QVKLVESGGGVVQPGRSLRLSCAASGFTFSNYVIHWVRQAPGKGLEWVAVIWYDGSNKYYADSVKGRFTISRDNSKNTLYLQMNSLRAEDTAVYYCARDRVVRGVDYYYYYGLDVWGQGTSVTVSS
VL: EIVMTQSPATLSVSPGERATLSCRASQSVRSNLAWYQQKPGQAPRLLIYGASSRATGIPARFSGTGSGTEFTLTISSLQSDDFAVYYCQQYNKWPRTFGQGTKVEIK
modifications: mouse IgG2a Fc

Assays:
hAPLNR [1] = molecular target: T1, hAPLNR (Homo sapiens, UniProt P35414); assay: CRE assay of modified apelin peptides in HEK293/CRE-luc/hAPLNR cells; type: cell-based; design: expressed in transfected cells
T1 sequence (P35414 1-380): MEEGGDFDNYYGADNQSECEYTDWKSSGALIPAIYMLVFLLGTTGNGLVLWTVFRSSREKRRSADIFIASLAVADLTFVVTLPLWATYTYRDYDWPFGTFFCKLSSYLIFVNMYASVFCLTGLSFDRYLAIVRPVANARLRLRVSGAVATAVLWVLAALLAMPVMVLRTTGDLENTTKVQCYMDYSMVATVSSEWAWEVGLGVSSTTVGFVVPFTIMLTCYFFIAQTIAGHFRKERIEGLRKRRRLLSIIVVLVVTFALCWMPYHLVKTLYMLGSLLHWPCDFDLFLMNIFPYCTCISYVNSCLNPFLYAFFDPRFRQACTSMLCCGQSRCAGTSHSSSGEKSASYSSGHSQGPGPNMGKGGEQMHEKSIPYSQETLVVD
Description: Briefly, an HEK293 cell line was transfected to stably express the full-length human hAPLNR (amino acids 1-380 of accession number NP_005152.1), along with a luciferase reporter [cAMP response element (CRE,4X)-luciferase]. […] After 5 hours of incubation at 37° C. in 5% CO2, luminescence was measured following the addition of One Glo reagent (Promega, #E6051) using a Victor X instrument (Perkin Elmer). The data were fit by nonlinear regression to a 4-parameter logistic equation with Prism 5 software (GraphPad).

HEK293 parental cells = assay: FACS binding to HEK293 parental cells; details: Table 3; 10 μg/mL antibody; anti-mouse IgG Alexa 647
Description: Binding ratios for human APLNR binding to purified anti-APLNR monoclonal antibodies were determined by a fluorescence-activated cell sorting (FACS) binding assay. […] The resulting stable cell lines, HEK293/CRE-luc/hAPLNR and HEK293/CRE-luc/MfAPLNR, were maintained in DMEM containing 10% FBS, NEAA, and penicillin/streptomycin with either 100 μg/mL Hygromycin B for hAPLNR cells or 500 μg/mL G418 for MfAPLNR cells.
For the FACS analysis, HEK293 parental, HEK293/CRE-luc/hAPLNR, and, HEK293/CRE-luc/mfAPLNR cells were dissociated using Enzyme Free Dissociation reagent (#S-004, Millipore, Billerica, Mass., USA) and 10^6 cells/well were plated onto 96-well v-bottom plates in PBS containing 1% FBS. […] Cells were then filtered and analyzed on Accuri Flow Cytometer (BD Biosciences, San Jose, Calif., USA). Unstained and secondary antibody alone controls were also tested for binding to all cell lines. […] Geometric mean (Geom. mean) of fluorescence for each antibody was then normalized to geometric mean of unstained cells to obtain relative binding of antibody (binding ratios) per each cell type: HEK293 (parental), HEK293/CRE-luc/hAPLNR and HEK293/CRE-luc/MfAPLNR.

hAPLNR [2] = molecular target: T1, hAPLNR; assay: CRE-luciferase cyclic AMP assay, activation of hAPLNR (inhibition of Forskolin-induced cAMP) in HEK293/CRE-luc/hAPLNR cells; type: cell-based; design: expressed in transfected cells; details: without Apelin, % of maximum Apelin activation
Description: The ability of anti-APLNR antibodies to activate hAPLNR-mediated cell signaling was measured using a cyclic AMP assay. The hAPLNR is a 7-transmembrane G-protein coupled receptor (GPCR).
The resulting cell line, HEK293/CRE-luc/hAPLNR, was maintained in DMEM containing 10% FBS, NEAA, pencillin/streptomycin, and 100 μg/mL Hygromycin B.
Testing of antibodies included a no antibody control.
The results of all assays were analyzed using nonlinear regression (4-parameter logistics) within Prism 5 software (GraphPad).

hAPLNR [3] = molecular target: T1, hAPLNR; assay: retinal vascular development (RVD) model in humanized APLNR mouse pups; type: in vivo; design: from tissue; host or cells: developing retina of humanized APLNR mouse pups (75% C57BL6 / 25% Sv129), in vivo
Description: A retinal vascular development (RVD) model was used to evaluate the effects of an antagonistic anti-APLNR antibody on blood vessel outgrowth in the normal developing retina of mouse pups that were of a mixed background strain (75% C57BL6 and 25% Sv129) and homozygous for expression of human APLNR in place of mouse APLNR (humanized APLNR mice). Pups were subcutaneously injected on postnatal day 2 (P2) with either 50 mg/kg of an anti-APLNR antagonist antibody, H2aM9232N, or an irrelevant human Fc (hFc) control. Reagents were masked and labeled as Solution A and Solution B to prevent experimenter bias. At postnatal day 5, tissue samples were collected and then fixed in PBS containing 4% paraformaldehyde. Fixed tissue samples were washed with PBS three times for 15 minutes, and subsequently stained with GS Lectin I (Vector Laboratories, #FL-1101) diluted 1:200 in 1×PBS containing 1% BSA in 0.25% Triton-X 100 overnight at 25° C. to visualize retinal vasculature. The following day, stained samples were rinsed with PBS three times for 15 minutes each, flat-mounted onto slides, and coverslips were subsequently mounted using Prolong Gold (Invitrogen, #P36930). Images were taken at 20 times magnification using an epi-fluorescent microscope (Nikon Eclipse 80). The vascularized areas in the retina were measured from acquired images from this assay using Adobe Photoshop CS6 extended. Statistical differences between the results obtained from the IgG control antibody and H2aM9232N treated samples were assessed using a two tailed, unpaired Student T-test (**, p<0.001). Only after retinal vasculature area measurements and statistical analysis were completed, the sample identities were unmasked.

| Molecule | efficacy in the CRE assay relative to apelin-13 (hAPLNR [1]) | Binding Ratio of Geom. Mean to Unstained Cells, HEK293 Parental (HEK293 parental cells) | % Activation at 100 nM mAb (at 10 uM Forskolin) (hAPLNR [2]; Table 6A) | % Activation at 500 nM mAb (at […] Forskolin) (hAPLNR [2]; Table 6B) | Retinal blood vessel outgrowth (mm^2), MEAN (hAPLNR [3]; group mean, 50 mg/kg subcutaneous at P2, measured at P5) | Retinal blood vessel outgrowth (mm^2) (hAPLNR [3]; individual eyes (OD/OS), 50 mg/kg subcutaneous at P2, measured at P5, 50 mg/kg) | mean reduction in retinal blood vessel outgrowth compared to control (hFc) (hAPLNR [3]; single subcutaneous injection 50 mg/kg, postnatal day 5) |
| --- | --- | --- | --- | --- | --- | --- | --- |
| CSCC[C@H](NC(=O)[C@@H]1CCCN1C(=O)CNC(=O)[C@H](CCCCN)NC(=O)[C@H](Cc1c[nH]cn1)NC(=O)[C@H](CO)NC(=O)[C@H](CC(C)C)NC(=O)[C@H](CCCNC(=N)N)NC(=O)[C@@H]1CCCN1C(=O)[C@H](CCCNC(=N)N)NC(=O)[C@@H](N)CCC(N)=O)C(=O)N1CCC[C@H]1C(=O)N[C@@H](Cc1ccccc1)C(=O)NCC(=O)NCC(=O)NCC(=O)NCC(=O)NCC(=O)O [Apelin-13 + 5G] | retain full efficacy |  |  |  |  |  |  |
| B1 |  | 6 | No Activation | did not demonstrate any measurable activation; also recorded: No Activation | 2.84 mm^2 | 2.49 mm^2 and 3.04 mm^2 and 3.57 mm^2 and 3.32 mm^2 and 2.23 mm^2 and 2.36 mm^2 | approximately 30% |
